Common to all, as to assay: cell-based or functional assay
For assay [1], the target named is T1, recombinant human MASP1 (amino acids 297-699, C-terminal His Tag) (human) (UniProt P48740).
T1 sequence: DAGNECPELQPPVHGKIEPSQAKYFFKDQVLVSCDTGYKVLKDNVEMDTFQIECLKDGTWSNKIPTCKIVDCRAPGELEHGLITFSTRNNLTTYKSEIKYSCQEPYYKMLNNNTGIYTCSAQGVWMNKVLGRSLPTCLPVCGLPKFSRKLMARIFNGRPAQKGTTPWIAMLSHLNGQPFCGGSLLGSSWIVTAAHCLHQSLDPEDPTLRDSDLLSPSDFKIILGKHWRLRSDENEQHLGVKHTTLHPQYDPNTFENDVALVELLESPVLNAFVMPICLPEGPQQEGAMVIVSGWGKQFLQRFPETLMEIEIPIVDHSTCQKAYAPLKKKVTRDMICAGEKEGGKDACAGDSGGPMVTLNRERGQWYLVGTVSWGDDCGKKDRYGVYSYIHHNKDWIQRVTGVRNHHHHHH

In assay [2] the target is recombinant human MASP2 (amino acids 297-686, C-terminal His Tag) (human) (UniProt O00187).
Chain of recombinant human MASP2 (amino acids 297-686, C-terminal His Tag) (human) (O00187 other isoform, or with tags, fused parts or gaps limits assumed): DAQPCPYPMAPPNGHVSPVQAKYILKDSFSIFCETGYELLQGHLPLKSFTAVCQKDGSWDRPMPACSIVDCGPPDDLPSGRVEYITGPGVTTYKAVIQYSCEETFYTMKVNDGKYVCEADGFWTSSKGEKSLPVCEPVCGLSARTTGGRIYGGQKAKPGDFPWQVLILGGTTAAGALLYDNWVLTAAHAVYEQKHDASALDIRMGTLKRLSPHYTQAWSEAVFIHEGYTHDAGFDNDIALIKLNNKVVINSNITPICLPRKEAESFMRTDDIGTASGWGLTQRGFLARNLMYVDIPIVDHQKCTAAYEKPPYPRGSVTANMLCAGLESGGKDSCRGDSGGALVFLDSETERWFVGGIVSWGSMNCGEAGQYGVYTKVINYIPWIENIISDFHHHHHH
Assay [3] has as its target T2, recombinant human MASP1 (amino acids 297-699, C-terminal His Tag) (human), P48740.
T2 chain: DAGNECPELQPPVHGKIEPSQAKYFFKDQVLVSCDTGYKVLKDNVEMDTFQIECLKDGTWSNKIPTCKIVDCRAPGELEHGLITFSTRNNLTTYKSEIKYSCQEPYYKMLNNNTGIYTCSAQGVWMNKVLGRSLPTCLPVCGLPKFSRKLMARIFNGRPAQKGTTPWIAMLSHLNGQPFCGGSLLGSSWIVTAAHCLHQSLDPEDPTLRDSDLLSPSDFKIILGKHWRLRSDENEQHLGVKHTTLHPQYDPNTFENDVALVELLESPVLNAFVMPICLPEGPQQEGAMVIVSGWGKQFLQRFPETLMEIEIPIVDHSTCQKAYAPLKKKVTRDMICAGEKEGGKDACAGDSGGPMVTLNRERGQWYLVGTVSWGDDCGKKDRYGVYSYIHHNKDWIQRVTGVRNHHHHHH

Assay [4] addresses recombinant human MASP2 (amino acids 297-686, C-terminal His Tag) (human), O00187.
The target in assay [5] is T3, recombinant rat MASP1 (amino acids 302-704, C-terminal His Tag) (rat), Q8CHN8.
T3 chain: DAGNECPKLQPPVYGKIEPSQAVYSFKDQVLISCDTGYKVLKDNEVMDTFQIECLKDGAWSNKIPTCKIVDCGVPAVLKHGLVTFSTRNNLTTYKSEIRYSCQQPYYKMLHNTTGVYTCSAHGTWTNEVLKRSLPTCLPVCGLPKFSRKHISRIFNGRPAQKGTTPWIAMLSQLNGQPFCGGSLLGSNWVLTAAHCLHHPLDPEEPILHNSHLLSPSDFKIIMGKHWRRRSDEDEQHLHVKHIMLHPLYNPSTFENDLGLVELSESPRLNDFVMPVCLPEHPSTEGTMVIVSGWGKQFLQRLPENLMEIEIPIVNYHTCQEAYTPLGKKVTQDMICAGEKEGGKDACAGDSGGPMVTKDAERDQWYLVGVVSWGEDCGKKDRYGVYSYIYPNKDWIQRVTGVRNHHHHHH

Assay [6] has as its target recombinant rat MASP2 (amino acids 296-685, C-terminal His Tag) (rat), Q9JJS8.

Bridges are numbered along the chain shown (N, C = ends). [ ]: non-standard residue; d: D form. Oic = O=C(O)[C@@H]1C[C@@H]2CCCC[C@@H]2N1; Trx = NC[C@H]1CC[C@H](C(=O)O)CC1; tBuAla = CC(C)(C)C[C@H](N)C(=O)O; Pen = CC(C)(S)[C@H](N)C(=O)O; NMeC = CN[C@@H](CS)C(=O)O; Abu = CC[C@H](N)C(=O)O; Ahx = NCCCCCC(=O)O; GABA = NCCCC(=O)O; Sar = CNCC(=O)O

Chain of recombinant rat MASP2 (amino acids 296-685, C-terminal His Tag) (rat), Q9JJS8 (Q9JJS8 other isoform, or with tags, fused parts or gaps limits assumed): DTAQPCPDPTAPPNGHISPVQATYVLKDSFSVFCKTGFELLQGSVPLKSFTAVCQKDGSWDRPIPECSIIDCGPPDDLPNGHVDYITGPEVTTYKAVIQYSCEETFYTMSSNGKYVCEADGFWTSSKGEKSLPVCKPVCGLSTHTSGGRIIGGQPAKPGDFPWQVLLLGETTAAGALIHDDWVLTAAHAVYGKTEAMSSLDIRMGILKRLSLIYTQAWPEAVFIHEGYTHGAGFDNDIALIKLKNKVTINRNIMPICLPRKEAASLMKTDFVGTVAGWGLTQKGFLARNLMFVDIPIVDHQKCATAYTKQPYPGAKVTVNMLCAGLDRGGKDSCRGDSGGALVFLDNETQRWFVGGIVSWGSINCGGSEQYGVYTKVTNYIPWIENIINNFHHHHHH
Chain of recombinant human MASP2 (amino acids 297-686, C-terminal His Tag) (human), O00187 (O00187 other isoform, or with tags, fused parts or gaps limits assumed): as the sequence (O00187 other isoform, or with tags, fused parts or gaps limits assumed) above

B1: Example 31: A**GAIC+SRS-((tBu)A)-PPI-((N-Me)C)+-IPD** (peptide)
peptide: cyclo(AGAICSRS[tBuAla]PPI[NMeC]IPD)
modifications: disulfide 5-13; also: TFA salt
Take B1: the human MASP1 IC50 in assay [1] stood at 16 nM. In assay [2], the human MASP2 IC50 amounted to 130 nM.

B2: Example 69: G**-(TXA)-GIC+SRS-((tBu)A)-PPI-((N-Me)C)+-IPD++-NH2 (peptide)
peptide: G[Trx]GICSRS[tBuAla]PPI[NMeC]IPD-NH2
modifications: disulfide 5-13; lactam N-16; also: TFA salt
Turning to B2, the human MASP1 IC50 in assay [1] is 20 nM. For the same molecule, in assay [2], the human MASP2 IC50 was determined as 190 nM.

B3: Example 36: (Gamma-Abu)**-IC+SRS-((tBu)A)-PPI-((N-Me)C)+-IPD** (peptide)
peptide: cyclo([GABA]ICSRS[tBuAla]PPI[NMeC]IPD)
modifications: disulfide 3-11; also: TFA salt
Consider B3, for which, in assay [1], the human MASP1 IC50 stood at 8.7 nM. The human MASP2 IC50 in assay [2] came out at 110 nM.

B4: Bicyclic SFTI-1: G**RC+TKSIPPIC+FPD** (peptide)
peptide: GRCTKSIPPICFPD
modifications: not checked
As to B4, the human MASP1 IC50 in assay [3] is over 3000 nM. For the same molecule, the human MASP2 IC50 in assay [4] is over 3000 nM. For the same molecule, the rat MASP1 IC50 in assay [5] was determined as 1000 nM. Moreover, the rat MASP2 IC50 in assay [6] worked out at 1000 nM.

B5: Example 33: (Ahx)**-(Abu)-IC+SRS-((tBu)A)-PPI-((N-Me)C)+-IPD** (peptide)
peptide: cyclo([Ahx][Abu]ICSRS[tBuAla]PPI[NMeC]IPD)
modifications: disulfide 4-12; also: TFA salt
For the molecule B5, in assay [1], the human MASP1 IC50 stood at 28 nM. Moreover, the human MASP2 IC50 in assay [2] came to 62 nM.

B6: Example 30: (Ahx)**-GIC+SRS-((tBu)A)-PPI-((N-Me)C)+-IPD** (peptide)
peptide: cyclo([Ahx]GICSRS[tBuAla]PPI[NMeC]IPD)
modifications: disulfide 4-12; also: TFA salt
Consider B6, for which the human MASP1 IC50 in assay [1] came to 16 nM. In addition, the human MASP2 IC50 in assay [2] was found to be 65 nM.

B7: Example 40: (Ahx)**-GIC+SRS-((tBu)A)-PPI-((N-Me)C)+-IPD++-NH2 (peptide)
peptide: [Ahx]GICSRS[tBuAla]PPI[NMeC]IPD-NH2
modifications: disulfide 4-12; lactam N-15; also: TFA salt
Turning to B7, the human MASP1 IC50 in assay [1] stood at 7.1 nM. Besides, the human MASP2 IC50 in assay [2] is 90 nM.

B8: Example 76: (Ahx)**-((N-Me)G)-GIC+SRSLP-(Oic)-I-(Pen)+-IPE++-NH2 (peptide)
peptide: [Ahx][Sar]GICSRSLP[Oic]I[Pen]IPE-NH2
modifications: disulfide 5-13; lactam N-16; also: TFA salt
Consider B8, for which the human MASP1 IC50 in assay [1] was 9.7 nM. For the same molecule, the human MASP2 IC50 in assay [2] was determined as 180 nM.

(Values after patent US20240010684A1, “MASP INHIBITORY COMPOUNDS AND USES THEREOF” (BAYER AKTIENGESELLSCHAFT, priority 2020, published 2024).)
